{"source": "patent US20030124664", "molecular_target": "human growth hormone (hGH) with the N-terminal phenylalanine, expressed and secreted from plasmid phGH4R, P01241", "sequence (P01241 27-217)": "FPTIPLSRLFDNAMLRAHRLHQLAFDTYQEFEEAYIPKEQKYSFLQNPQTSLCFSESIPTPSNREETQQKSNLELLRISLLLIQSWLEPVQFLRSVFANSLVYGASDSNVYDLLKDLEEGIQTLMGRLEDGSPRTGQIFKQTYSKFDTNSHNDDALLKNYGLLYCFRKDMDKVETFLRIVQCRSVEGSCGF"}
{"protein": "native-sequence aminopeptidase b2324 (product of the E. coli chromosomal yfcK gene) (protein) MRSLTHIAKIEPPPVRRVTYVKHYSIQPANLEFNAEGTPVSRDFDDVYFSNDNGLEETRYVFLGGNQLEVRFPEHPHPLFVVAESGFGTGLNFLTLWQAFDQFREAHPQAQLQRLHFISFEKFPLTRADLALAHQHWPELAPWAEQLQAQWPMPLPGCHRLLLDEGRVTLDLWFGDINELTSQLDDSLNQKVDAWFLDGFAPAKNPDMWTQNLFNAMARLARPGGTLATFTSAGFVRRGLQDAGFTMQKRKGFGRKREMLCGVMEQTLPLPCSAPWFNRTGSSKREAAIIGGGIASALLSLALLRRGWQVTLYCADEAPALGASGNRQGALYPLLSKHDEALNRFFSNAFTFARRFYDQLPVKFDHDWCGVTQLGWDEKSQHKIAQMLSMDLPAELAVAVEANAVEQITGVATNCSGITYPQGGWLCPAELTRNVLELAQQQGLQIYYQYQLQNLSRKDDCWLLNFAGDQQATHSVVVLANGHQISRFSQTSTLPVYSVAGQVSHIPTTPELAELKQVLCYDGYLTPQNPANQHHCIGASYHRGSEDTAYSEDDQQQNRQRLIDCFPQAQWAKEVDVSDKEARCGVRCATRDHLPMVGNVPDYEATLVEYASLAEQKDEAVSAPVFDDLFMFAALGSRGLCSAPLCAEILAAQMSDEPIPMDASTLAALNPNRLWVRKLLKGKAVKAG", "values": [{"measurement": "N-terminal cleavage of hGH in crude lysate (LC-MS), yfcK deletion strain against control", "value": "virtually no phenylalanine-cleaved impurities after 15 hours of incubation at 37 °C"}]}
